According to the RNAGym collection of RNA variant scans (doi:10.1073/pnas.2313332121):
Fewer inactive variants are shown than the library holds.

B1: TPR 5TU (parent)
chain: GGAUCUUCUCGAUCUAACAAAAAAGACAAAUCUGCCACAAAGCUUGAGAGCAUCUUCGGAUGCAGAGGCGGCAGCCUUCGGUGGCGCGAUAGCGCCAACGUUCUCAACUAUGACACGCAAAACGCGUGCUCCGUUGAAUGGAGUUUAUCAUG

Variants of: B1
Test: polymerase ribozyme fitness, log enrichment relative to wild type (log ratio); higher = more active; in vitro selection for triplet polymerase activity
Procedure, shortened: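 Fitness is a logarithmic measure of how a genotype enriched relative to the wild type, with replicate averages weighted by inverse variance. The logarithm uses base 2, and enrichment came from Illumina sequencing of input and output libraries. Those libraries were PCR-built, transcribed mutants of each subunit of a heterodimeric triplet polymerase ribozyme, passed through one triplicate in vitro selection round that included frozen incubation at −7 °C, gel excision of extended constructs and streptavidin-bead capture. Genotypes were kept only if they had ≥10 input reads and ≥1 read per output.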

| Variant | polymerase ribozyme fitness (log ratio) |
| --- | --- |
| C54U C75G G80C U82A C87U C99G | ≤ -4.2 |
| C54U G86U C93A A97U A120G | -1.29 |
| C54U G83U C85A U90G | ≤ -4.2 |
| C54G G68C G80A G94U A98G | ≤ -4.2 |
| C54G G65A C79U C85G A91U G136C | ≤ -4.2 |
| U55A G94C U148G | ≤ -4.2 |
| U55A G62C G81A | -3.98 |
| C54U C95G A98G | -2.01 |
| U55A A73G | -0.446 |
| C54U C114A A137U | -3.59 |
| C54U C96U U144G | 0.217 |
| C54U G58C C85A | -2.42 |
| U55A C85U A122G A142G U145G | -2.39 |
| C54U U56C | -0.57 |
| C54G G67A U77C C87A C99U U130G | ≤ -4.2 |
| U55A A73U C75U C93U G100A U139A U144G | ≤ -4.2 |
| U55A A64C C85U U146G | ≤ -4.2 |
| C54U G59C A60G A122U | 0.186 |
| U55A C125A | -0.912 |
| C54U C96A C105G G124U | -3.42 |
| U55A G68A | -3.21 |
| U55A G84A G117U | -0.634 |
| U55A C114U | -2.21 |
| U55A C114A | -3.44 |

| Variant | polymerase ribozyme fitness (log ratio) |
| --- | --- |
| C54U U82G C95A A119G | -2.04 |
| C54U A60G C95U | -0.803 |
| C54U C63G G67C G143A | ≤ -4.2 |
| C54U G80A | -0.56 |
| C54U U77C G88A C96U A106C | ≤ -4.2 |
| C54U G94C G124A | -1.04 |
| U55A G126U | -0.31 |
| U55A C85A G133C | -3.05 |
| U55A G86U U145G | -1.41 |
| U55A G141A | -0.587 |
| U55A C85A A119U U134A A142C | ≤ -4.2 |
| C54U A73G | -0.166 |
| C54U U55G G58A A64U G88A C95G U127A | ≤ -4.2 |
| U55A G117A | -0.438 |
| C54G G74C G81A G88C | ≤ -4.2 |
| U55A G92U G124U G141C | -1.14 |
| C54U C69A U144C | -3.89 |
| C54U A138G | -3.19 |
| U55A C79A A121C | ≤ -4.2 |
| C54U C93U U144C U146G | -3.87 |
| U55A C103G | -2.22 |
| U55A C103U | -0.726 |
| U55A C57A A60G A73U C132U U145G | -2.26 |
| U55A U61A A97C C103A C125A | ≤ -4.2 |

| Variant | polymerase ribozyme fitness (log ratio) |
| --- | --- |
| U55A C93G G141C | -3.82 |
| C54U G84A U102G | -4.14 |
| C54U U148A | -3.74 |
| U55A A91G U134A | -4.01 |
| U55A C69U G136A | -3.04 |
| C54U U77C G84A U109C | ≤ -4.2 |
| U55A G94U C108A | ≤ -4.2 |
| C54U C72U | -0.468 |
| C54U C57A C75U A91G | -3.62 |
| C54U C57G G84U C85U C132U | -3.94 |
| U55A C69U G94C | -3.36 |
| C54U U82A C105U A119G | 0.194 |
| C54U C85G C87G | ≤ -4.2 |
| C54U C85U C95A | -1.84 |
| U55A G71C A106U C125A | ≤ -4.2 |
| C54U G86A | -1.18 |
| C54U G86U | -1.78 |
| C54U A64C U90G U139G G140A | ≤ -4.2 |
| C54U C79U G92U C95U G141C | -3.77 |
| U55A G67A C85U U90A A98U | ≤ -4.2 |
| C54U G65U A73U A91U C108G | ≤ -4.2 |
| U55A A115U G133U | ≤ -4.2 |
| U55A G59C G94U A107C | ≤ -4.2 |
| C54U G143A | -0.736 |

| Variant | polymerase ribozyme fitness (log ratio) |
| --- | --- |
| U55A C105G G141U | -2.82 |
| U55A C72U C79A A107G | ≤ -4.2 |
| U55A G62A C69G G71A | ≤ -4.2 |
| U55A A91U C96A C125G A142G | ≤ -4.2 |
| U55A A138G | -2.51 |
| U55A A138U | -3.9 |
| C54U G81U G83U G152U | -4.17 |
| C54U U56A C118U | -0.674 |
| C54G U55A C108G A122U | ≤ -4.2 |
| U55A G84U A106C U144C U146C | -4.16 |
| C54G U56A C57A G81U C93U | -0.912 |
| C54U U82C C95A G141U | -2.99 |
| C54U G59U G74A | -3.62 |
| C54U C85G | -2.49 |
| C54U C85A | -2.3 |
| C54U A89G C95A U148G | -4.18 |
| U55A U61A C96A C116G | -2.17 |
| C54U C87U C99U U135C | -3.26 |
| U55A G81A C87U U135A U146A | -2.11 |
| C54U A106G | -0.0717 |
| U55A G59U A60G G94A | -1.02 |
| U55A G74C C118U | ≤ -4.2 |
| C54G U82A | -1.98 |
| C54G U82G | -0.687 |

| Variant | polymerase ribozyme fitness (log ratio) |
| --- | --- |
| U55A A113C | -2.92 |
| U55A A115G G124U | -0.932 |
| C54U C57A | -0.253 |
| U55A U56A | -0.654 |
| U55A C57A | 0.142 |
| U55A C57U | 0.643 |
| C54U U82A G83A A98G | -1.89 |
| U55A C76G A138C | ≤ -4.2 |
| U55A A60G | 0.676 |
| U55A A60C | -4.18 |
| U55A C69A U77C A89G | ≤ -4.2 |
| U55A G92U | -1.03 |
| U55A U56C G58A G92C A119U U145G | -2.87 |
| C54U C87G A142C | ≤ -4.2 |
| U55A A97U | -0.916 |
| U55A A97C | 0.466 |
| C54U C57U G83C | -1.34 |
| U55A G58C | -0.661 |
| U55A A66G G92U A119C | ≤ -4.2 |
| U55A G68C A91G A107C | ≤ -4.2 |
| C54U U56A G71A A107C A150C | ≤ -4.2 |
| U55A G86U A91U G133U A147U | ≤ -4.2 |
| C54U G58A G92A U145A | -3.35 |
| U55A U56A G80U U111A | ≤ -4.2 |

| Variant | polymerase ribozyme fitness (log ratio) |
| --- | --- |
| C54U C95G | -1.07 |
| C54U C95U | -0.851 |
| U55A C75U | 0.238 |
| C54G U55A G70U G81C C87U G94C C96A C105A A120C | ≤ -4.2 |
| U55A C96A G136C | -3.78 |
| C54G G94U C123U G133C | -2.38 |
| U55A C63G C76U U78G G92C G136U G141C | ≤ -4.2 |
| U55A G84U | -2.28 |
| U55A G84A | -1.01 |
| C54U U56C C93U A150U | 0.278 |
| C54U G92C | -1.07 |
| C54G U55G | ≤ -4.2 |
| C54U C87U | -1.08 |
| C54U C87G | ≤ -4.2 |
| U55A A106C C125G | -1.63 |
| C54U C87U A115U | -1.85 |
| U55A C93U A115U G143U | ≤ -4.2 |
| C54U U101G | -0.483 |
| C54U A64G G68A U77C G83A G88U U90G C132U U139G | ≤ -4.2 |
| C54U G59U | 0.271 |
| U55A A150C | -3.6 |
| C54U C76A | -0.561 |
| U55A C76U A121C | -0.181 |
| C54U G94C | -1.15 |

| Variant | polymerase ribozyme fitness (log ratio) |
| --- | --- |
| C54U G94A | -0.351 |
| U55A C87A | ≤ -4.2 |
| U55A C87U | -1.1 |
| C54U G81A C95U | -0.559 |
| U55A C132A A137G G143A U146G | ≤ -4.2 |
| U55A G124U U139G | 0.0477 |
| U55A G124A | -0.272 |
| U55A G124U | -2 |
| C54U G88C | ≤ -4.2 |
| C54G G65U A73U C87A A106U G140A G143A | ≤ -4.2 |
| C54G U101G C118U | -2.4 |
| U55A A73C C87U G92A | -2.04 |
| U55A C87U U90C A122U | ≤ -4.2 |
| U55A C76A C114U | -3.91 |
| C54G U55A G94A C132U | ≤ -4.2 |
| U55A G81C C118G G141A U146A | -2.94 |
| C54U G84A A110U | ≤ -4.2 |
| C54U C149U | -0.259 |
| U55A A73G A89G G136A | -0.934 |
| C54U A64U G83A C85A | ≤ -4.2 |
| U55A G84U G128U U134C | -4.17 |
| C54U A91G G128U C131U | -3.53 |
| U55A A122G | -0.237 |
